In patent publication US20180079802A1:

Molecular target: CHIKV VLP
Assay: SPR (Biacore T100), VLP captured by mouse anti-CHIKV mAbs, Fab injected

B1: 4J21 Fab (Fab, V domains shown)
VH: QVQLVQSGSELKKPGASVKVSCKASGYSFTSYSINWVRQAPGQGPEWMGWIDTNTGNPTYAQDFAGRFVFSLDTSVTTAYLQISSLKAGDTAVYYCATYYVDLWGSYRQDYYGMDVWGHGTLVTVSS
VL: QSVVTQPPSVSGTPGQGVTISCSGGSSNIGSNPVNWYQMVPGTAPKLLLYTNNQRPSGVPDRFSGSKSGTSASLAINGLQSEDEADYYCAVWDDSLSGRWVFGGGTKLTVL
For B1, the Kd was 9 nM, the koff was 0.00142 s⁻¹ and the kon was 158000 M⁻¹ s⁻¹. The t1/2 was 8 min.

B2: 3E23 Fab (Fab, V domains shown)
VH: QVQLVQSGPGLVKPSDTLSLTCSVSSDALRSRSYYWGWVRQPPGKGLEWIGTVSYSGGTYYNPSLQSRVTVSVDTSKNHFSLRLNSVTAADAAVYYCARSYFYDGSGYYYLSYFDSWGQGTLVTVSS
VL: QAVVTQEPSLTVSPGGTVTLTCASSTGAVTSGHYPNWFQQKPGQPPRALIYSTDNKHSWTPARFSGSLLGVKAALTLSDVQPEDEADYYCLLHFGGVVVFGGGTKLTVL
Work on B2 yielded a Kd of 19.6 nM, a koff of 0.000393 s⁻¹ and a kon of 20300 M⁻¹ s⁻¹. For the same binder, the t1/2 was 29 min.
